Patent publication US20170182124A1, “FGF21 Derivatives and Uses Thereof” (Novo Nordisk A/S, priority 2014, published 2017)
Where two headings read alike, the source gives them in different places.

Molecular target: FGF receptor/BKL complex
Assay: FGF receptor potency in an Erk phosphorylation assay in HEK293 overexpressing human BKL
Assay type: cell-based
Conditions: HEK293/BKL cells, pERK after 12 minutes
Protocol: In order to test the binding of the FGF21 derivatives to albumin, the assay was performed in the absence of serum albumin as well as in the presence of human serum albumin (HSA) (0.1% final assay concentration). An increase in EC50 value (decrease in potency) in the presence of serum albumin for FGF21 derivatives would indicate binding to serum albumin and represents a method to predict a protracted pharmacokinetic profile of the test substance in animal models. MetFGF21 (SEQ ID NO:2) is included for reference.
HEK293 cells endogenously express several FGF receptors, including FGFR1c, FGFR3c and FGFR4. These cells are unresponsive to FGF21 until transfected with the co-receptor beta-klotho (BKL). Activation of the FGF receptor/BKL complex leads to activation of the MAPK/ERK signalling pathway and phosphorylation of ERK. The level of phosphorylated ERK (pERK) at a given time point increases with increasing concentrations of FGF21. As described below the level of pERK is measured after 12 minutes of stimulation with a range of FGF21 analogue concentrations.
The HEK293/beta-klotho cells are seeded with 30.000 cells/well in 96 well plates in DMEM (BioWhittaker #BE12-604F/U1), supplemented with 10% FCS (Gibco #16140-071), 1% penicillin/streptomycin (Gibco #15140), 100 µg/ml Hygromycin B, (Calbiochem, # 400052). Two days later and 2 hours before addition of compound the cell medium is exchanged with 100 ∞l basal medium (DMEM (BioWhittaker #BE12-604F/U1)). The FGF21 analogues are diluted in assay medium (DMEM (BioWhittaker #BE12-604F/U1) supplemented with 0.02% Tween20), warmed to 37° C., added to the cells (100 μl) and incubated at 37° C. for 12 minutes. The FGF21 derivatives were also tested in the presence of 0.1% HSA (Sigma—A1887). All medium is quickly removed and 50 μl lysis buffer is added pr. well. The plate is shaken for 5 minutes and the lysate is ready for measurement of pERK. pERK is measured in 384 well plates with the AlphaScreen SureFire kit (PerkinElmer #TGRES10K). This kit is based on ERK and pERK specific antibodies coupled to donor and acceptor beads. The presence of pERK will bring acceptor and donor beads in close proximity and a signal is generated that is read on EnVision. The data are analysed using GraphPad Prism and the potency of the FGF21 proteins is described as absolute EC50 value.

[1] = presence of 0.1% HSA, read-out: EC50 (0.1% HSA)

Sequence of FGF receptor/BKL complex (Q86Z14 whole entry, one chain of several): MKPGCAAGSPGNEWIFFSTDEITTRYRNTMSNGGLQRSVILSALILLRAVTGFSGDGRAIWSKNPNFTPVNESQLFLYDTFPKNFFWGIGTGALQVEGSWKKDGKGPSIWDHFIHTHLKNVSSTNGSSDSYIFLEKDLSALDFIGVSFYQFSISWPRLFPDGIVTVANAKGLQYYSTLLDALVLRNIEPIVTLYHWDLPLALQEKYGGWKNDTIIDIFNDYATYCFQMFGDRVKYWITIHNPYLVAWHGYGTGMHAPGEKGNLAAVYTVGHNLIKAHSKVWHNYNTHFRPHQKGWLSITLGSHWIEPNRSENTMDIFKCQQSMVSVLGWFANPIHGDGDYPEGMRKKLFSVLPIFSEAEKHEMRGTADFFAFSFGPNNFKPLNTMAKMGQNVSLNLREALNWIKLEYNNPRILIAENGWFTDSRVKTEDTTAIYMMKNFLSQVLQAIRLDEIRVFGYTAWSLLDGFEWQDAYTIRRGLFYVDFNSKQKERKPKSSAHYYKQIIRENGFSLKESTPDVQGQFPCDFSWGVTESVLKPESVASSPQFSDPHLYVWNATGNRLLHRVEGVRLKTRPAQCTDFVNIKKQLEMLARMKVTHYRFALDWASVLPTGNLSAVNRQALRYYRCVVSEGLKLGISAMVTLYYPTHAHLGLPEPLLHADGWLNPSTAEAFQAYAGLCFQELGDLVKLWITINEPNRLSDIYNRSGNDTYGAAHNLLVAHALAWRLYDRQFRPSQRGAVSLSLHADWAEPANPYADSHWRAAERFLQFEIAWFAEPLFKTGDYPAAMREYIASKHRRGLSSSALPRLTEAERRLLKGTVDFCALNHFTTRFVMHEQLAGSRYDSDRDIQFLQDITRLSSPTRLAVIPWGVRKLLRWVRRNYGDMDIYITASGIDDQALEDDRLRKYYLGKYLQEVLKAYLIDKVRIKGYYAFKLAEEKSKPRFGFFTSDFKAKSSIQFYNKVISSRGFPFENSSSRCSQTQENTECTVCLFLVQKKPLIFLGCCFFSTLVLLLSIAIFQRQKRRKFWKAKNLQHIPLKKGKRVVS

Molecule	EC50 (absence of HSA, read-out: EC50) [nM]	EC50 [1] [nM]
20-[[(1S)-4-[[(1S)-4-[2-[2-[2-[2-[2-[2-[[(1S)-5-acetamido-1-carboxy-pentyl]amino]-2-oxo-ethoxy]ethoxy]ethylamino]-2-oxo-ethoxy]ethoxy]ethylamino]-1-carboxy-4-oxo-butyl]amino]-1-carboxy-4-oxo-butyl]ami … (protein) HPIPDSSPLLQFGGQVRQRYLYTDDAQQTEAHLEIREDGTVGGAADQSPESLLQLKALKPGVIQILGVKTSRFLCQRPDGALYGSLHFDPEACSFRELLLEDGYNVYQSEAHGLPLHLPGQKSPHRDPAPRGPARFLPLPGLPPALPEPPGILAPQPPDVGSSDPLSLVGPSQGRSPSYCS	10.3	65.5
20-[[(1S)-4-[2-[2-[2-[2-[2-[2-[[(1S)-5-acetamido-1-carboxy-pentyl]amino]-2-oxo-ethoxy]ethoxy]ethylamino]-2-oxo-ethoxy]ethoxy]ethylamino]-1-carboxy-4-oxo-butyl]amino]-20-oxo-icosanoic … (protein) HPIPDSSPLLQFGGQVRQRYLYTDDAQQTEAHLEIREDGTVGGAADQSPESLLQLKALKPGVIQILGVKTSRFLCQRPDGALYGSLHFDPEACSFRELLLEDGYNVYQSEAHGLPLHLPGQKSPHRDPAPRGPARFLPLPGLPPALPEPPGILAPQPPDVGSSDPLSLVGPSQGRSPSYCS	6.1	52.5
12-[[(1S)-4-[2-[2-[2-[2-[2-[2-[[(1S)-5-acetamido-1-carboxy-pentyl]amino]-2-oxo-ethoxy]ethoxy]ethylamino]-2-oxo-ethoxy]ethoxy]ethylamino]-1-carboxy-4-oxo-butyl]amino]-12-oxo-dodecanoic … (protein) HPIPDSSPLLQFGGQVRQRYLYTDDAQQTEAHLEIREDGTVGGAADQSPESLLQLKALKPGVIQILGVKTSRFLCQRPDGALYGSLHFDPEACSFRELLLEDGYNVYQSEAHGLPLHLPGQKSPHRDPAPRGPARFLPLPGLPPALPEPPGILAPQPPDVGSSDPLSLVGPSQGRSPSYCS	8.4	3.4
4-[10-[[(1S)-4-[2-[2-[2-[2-[2-[2-[[(1S)-5-acetamido-1-carboxy-pentyl]amino]-2-oxo-ethoxy]ethoxy]ethylamino]-2-oxo-ethoxy]ethoxy]ethylamino]-1-carboxy-4-oxo-butyl]amino]-10-oxo-decoxy]benzoic … (protein) HPIPDSSPLLQFGGQVRQRYLYTDDAQQTEAHLEIREDGTVGGAADQSPESLLQLKALKPGVIQILGVKTSRFLCQRPDGALYGSLHFDPEACSFRELLLEDGYNVYQSEAHGLPLHLPGQKSPHRDPAPRGPARFLPLPGLPPALPEPPGILAPQPPDVGSSDPLSLVGPSQGRSPSYAC	26.4	138
16-[[4-[[(1S)-4-[2-[2-[2-[2-[2-[2-(2-acetamidoethylamino)-2-oxo-ethoxy]ethoxy]ethylamino]-2-oxo-ethoxy]ethoxy]ethylamino]-1-carboxy-4-oxo-butyl]carbamoyl]cyclohexyl]methylamino]-16-oxo-hexadecanoic … (protein) HPIPDSSPLLQFGGQVRQRYLYTDDAQQTEAHLEIREDGTVGGAADQSPESLLQLKALKPGVIQILGVKTSRFLCQRPDGALYGSLHFDPEACSFRELLLEDGYNVYQSEAHGLPLHLPGQKSPHRDPAPRGPARFLPLPGLPPALPEPPGILAPQPPDVGSSDPLSLVGPSQGRSPSYCS	3.5	3.2
4-[10-[[4-[2-[2-[2-[2-[2-[2-[[(1S)-5-acetamido-1-carboxy-pentyl]amino]-2-oxo-ethoxy]ethoxy]ethylamino]-2-oxo-ethoxy]ethoxy]ethylamino]-4-oxo-butyl]sulfonylamino]-10-oxo-decoxy]benzoic … (protein) HPIPDSSPLLQFGGQVRQRYLYTDDAQQTEAHLEIREDGTVGGAADQSPESLLQLKALKPGVIQILGVKTSRFLCQRPDGALYGSLHFDPEACSFRELLLEDGYNVYQSEAHGLPLHLPGQKSPHRDPAPRGPARFLPLPGLPPALPEPPGILAPQPPDVGSSDPLSLVGPSQGRSPSYAC	24.7	132
16-[[4-[[(1S)-4-[2-[2-[2-[2-[2-[2-[[(1S)-5-[(2-acetamido]-1-carboxy-pentyl]amino]-2-oxo-ethoxy]ethoxy]ethylamino]-2-oxo-ethoxy]ethoxy]ethylamino]-1-carboxy-4-oxo-butyl]carbamoyl]cyclohexyl]methylamino … (protein) HPIPDSSPLLQFGGQVRQRYLYTDDAQQTEAHLEIREDGTVGGAADQSPESLLQLKALKPGVIQILGVKTSRFLCQRPDGALYGSLHFDPEACSFRELLLEDGYNVYQSEAHGLPLHLPGQKSPHRDPAPRGPARFLPLPGLPPALPEPPGILAPQPPDVGSSDPLSLVGPSQGRSPSYCS	4	2.1
(2S)-6-acetamido-2-[[2-[2-[2-[[2-[2-[2-[[(4S)-4-carboxy-4-(16-sulfohexadecanoylamino)butanoyl]amino]ethoxy]ethoxy]acetyl]amino]ethoxy]ethoxy]acetyl]amino]hexadecanoic … (protein) HPIPDSSPLLQFGGQVRQRYLYTDDAQQTEAHLEIREDGTVGGAADQSPESLLQLKALKPGVIQILGVKTSRFLCQRPDGALYGSLHFDPEACSFRELLLEDGYNVYQSEAHGLPLHLPGQKSPHRDPAPRGPARFLPLPGLPPALPEPPGILAPQPPDVGSSDPLSLVGPSQGRSPSYCS	4.2	7.1
12-[[4-[[(1S)-4-[2-[2-[2-[2-[2-[2-(2-acetamidoethylamino)-2-oxo-ethoxy]ethoxy]ethylamino]-2-oxo-ethoxy]ethoxy]ethylamino]-1-carboxy-4-oxo-butyl]carbamoyl]cyclohexyl]methylamino]-12-oxo-dodecanoic … (protein) HPIPDSSPLLQFGGQVRQRYLYTDDAQQTEAHLEIREDGTVGGAADQSPESLLQLKALKPGVIQILGVKTSRFLCQRPDGALYGSLHFDPEACSFRELLLEDGYNVYQSEAHGLPLHLPGQKSPHRDPAPRGPARFLPLPGLPPALPEPPGILAPQPPDVGSSDPLSLVGPSQGRSPSYCS	4	4.7
18-[[4-[[(1S)-4-[2-[2-[2-[2-[2-[2-[[(1S)-5-[(2-acetamido]-1-carboxy-pentyl]amino]-2-oxo-ethoxy]ethoxy]ethylamino]-2-oxo-ethoxy]ethoxy]ethylamino]-1-carboxy-4-oxo-butyl]carbamoyl]cyclohexyl]methylamino … (protein) HPIPDSSPLLQFGGQVRQRYLYTDDAQQTEAHLEIREDGTVGGAADQSPESLLQLKALKPGVIQILGVKTSRFLCQRPDGALYGSLHFDPEACSFRELLLEDGYNVYQSEAHGLPLHLPGQKSPHRDPAPRGPARFLPLPGLPPALPEPPGILAPQPPDVGSSDPLSLVGPSQGRSPSYCS	4	14
20-[[4-[[(1S)-4-[2-[2-[2-[2-[2-[2-[[(1S)-5-[(2-acetamido]-1-carboxy-pentyl]amino]-2-oxo-ethoxy]ethoxy]ethylamino]-2-oxo-ethoxy]ethoxy]ethylamino]-1-carboxy-4-oxo-butyl]carbamoyl]cyclohexyl]methylamino … (protein) HPIPDSSPLLQFGGQVRQRYLYTDDAQQTEAHLEIREDGTVGGAADQSPESLLQLKALKPGVIQILGVKTSRFLCQRPDGALYGSLHFDPEACSFRELLLEDGYNVYQSEAHGLPLHLPGQKSPHRDPAPRGPARFLPLPGLPPALPEPPGILAPQPPDVGSSDPLSLVGPSQGRSPSYCS	4	–
